Patent publication US9044514B2, “Lipid-peptide-polymer conjugates and nanoparticles thereof” (priority 2010, dated 2015)
Where no end group is shown, it is not given here.

Assays:
Format in all cases: physicochemical
[1] = Circular dichroism (CD), peptide helicity; settings: CD spectra, same conditions, FIG. 31
Experimental: Temperature dependent CD measurements were made on a Jasco J810 spectropolarimeter. CD spectra were collected from 260 to 190 nm at 0.2 nm intervals, a rate of a 100 nm/min, a response time of 4 s, and a bandwidth of 1 nm. Temperature melt curves were measured using ˜200 μM solutions. The ellipticity was monitored at 222 nm as the temperature increased from 5° to 95° C. in 5° C. increments at a rate of 1° C./min, with a 1 min equilibration time at each temperature before the measurement was taken. One hundred percent helicity was estimated using the formula [θ]222=40,000[…][1−(2.5/n)].

[2] = Particle size of self-assembled nanoparticles (TEM); settings: for Particle Size: particles self-assembled from the conjugate, Table 1
Experimental: Lyophilized peptide-polymer conjugates were dissolved in phosphate buffer (pH=8) at a concentration of 10 mg/ml (˜1.5 mM). Upon sonication for 30 s, solutions were diluted to 1 mg/ml (0.15 mM) or 0.1 mg/ml in phosphate buffer (pH=8). 5 μl of the diluted peptide solution were applied to a discharged holey carbon-coated copper grid (Ted Pella Cu 400 mesh 01824) for 4 minutes before absorbing off excess solution using filter paper (Whatman filter paper 1). The sample on the grid was negatively stained with a 5 μl 2% (w/v) phosphotungstic acid (adjusted to pH=3.3 with 1 M NaOH) for 2 minutes. Excess stain solution was wicked off. After complete drying, grids were examined by TEM at 120 kV (Philips/FEI Tecnai 12).
Lyophilized peptide powder was dissolved at 1 mg/ml in 25 mM phosphate buffer at pH 7.4. 5 μl of peptide solution was dropped on a discharged holey carbon coated grid (Ted Pella 01824). After removing excess peptide solution, 5 μl of phosphotungstic acid (2 wt %, pH=3.3) solution was then applied for 2 minutes. Samples were dried in air and examined by a FEI Tecnai 12 transmission electron microscope at 120 kV.

[3] = Differential scanning calorimetry (DSC) of micelles; settings: heating from 5° C. to 85° C.; solutions incubated at 20° C. for 16 hrs; FIG. 21A
Experimental: DSC was performed on a VP-MicroCal calorimeter (GE). ˜600 μl of sample and buffer were loaded into two parallel stainless steel cells that were sealed tightly under the pressure of ˜27 psi to prevent water evaporation during the heating cycle. The temperature was increased from 5° to 85° C. at a rate of 1° C./min, with a 15 min equilibration time at 5° C. DSC thermograms were obtained after concentration normalization and baseline correction using the Origin software provided by the MicroCal.

Substance | helical content [1] | Particle Size [2] | DSC melting temperature / endothermic peak centre [3] [°C] | particle/micelle diameter ([2]; TEM for conjugate 15) [nm]
Conjugate 14: dC16 lipid, random coil control peptide SR (SEQ ID NO: 4), PEG2K (EGKAGEKAGAALKCGVQELEKGAEAGEGGW; also: dC16 lipid, place not given here, PEG2K, place not given here) | less than 5% | 10-15 nm | 42 | 
Conjugate 8: dC16 lipid, heme-binding 4-helix peptide BB (SEQ ID NO: 2), PEG2K (GGGEIWKLHEEFLCKFEELLKLHEERLKKM; also: dC16 lipid, place not given here, PEG2K, place not given here) |  | 10-15 nm |  | ~12
